Data set [1] can be described thus: UV visible near-infrared and fluorescence spectra in aqueous solution. Type of data set: physicochemical. To be noted: 10 μM in ultrapure water.
The nature of data set [2]: TEM and particle size of probe in aqueous solution. Type of data set: physicochemical. The conditions noted are these: TEM.
For data set [3] the following is noted: 10 μM.
Data set [4] has as its system 4T1 mice breast cancer tumor. As to the method:
The control group probe CR and the experimental group probe f-CR were treated with PBS to a concentration of […] 200 μL. MB (PBS, 0.1) was injected into the mouse tumor 0.5 hours in advance by intratumor injection, followed by tail vein injection of CR or f-CR.

A further data set has as its system 4T1 cells. Nature of the data set: Cytotoxicity of probes co-incubated with MB and cells.

Consider `CC[N+]1=C(/C=C/C=C/C=C/C=C2\N(CCCCCC(=O)NCCCCC3NC(=O)C(Cc4ccccc4)NC(=O)C(CC(=O)O)NC(=O)CNC(=O)C(CCCNC(=N)N)NC3=O)c3ccc(S(=O)(=O)O)cc3C2(C)C)C(C)(C)c2cc(S(=O)(=O)O)ccc21` (stereo not drawn) [CR], for which, in data set [1], the maximum absorption is listed as 747 nm and the maximum emission worked out at 789 nm. Besides, the assembly or nanostructure result in data set [2] is given as “no assembly or nanostructure was found”. Moreover, in data set [3], the “solubility in ultrapure water” value was “completely soluble”.
With `CC[N+]1=C(/C=C/C=C/C=C/C=C2\N(CCCCCC(=O)NC(CCCCNC(=O)CCc3ccco3)C(=O)NCCCCC3NC(=O)C(Cc4ccccc4)NC(=O)C(CC(=O)O)NC(=O)CNC(=O)C(CCCNC(=N)N)NC3=O)c3ccc(S(=O)(=O)O)cc3C2(C)C)C(C)(C)c2cc(S(=O)(=O)O)ccc21` (stereo not drawn) [f-CR], the “enrichment in the tumor” value in data set [4] (12 hours after probe injection, f-CR+MB+660 nm, tumor sections and organ homogenates) is “much higher than that of other groups”. Besides, in data set [4] (MB intratumor 0.5 hours in advance, probe 100 Mm 200 μL tail vein, 660 nm 50 mW/cm^2 3 minutes after 1 hour), the “retention time in vivo (tumor, IVIS)” value was “much longer than that of other groups”. Further, in data set [3], the “solubility in ultrapure water” value is “completely soluble”. In the data set on 4T1 cells (100, 50, 20, 10, 1, 0.1 μM + MB 0.1 μM, 4T1 cells, 12 hours), the toxicity without illumination result is reported as “neither CR nor f-CR showed significant toxicity”. Moreover, the cytotoxicity after illumination entry in the data set on 4T1 cells (probe + MB 0.1 μM, 4T1 cells 12 hours, 660 nm 50 mW/cm 2 3 minutes, further cultured 48 hours) is on record as “exhibited certain cytotoxicity”.

These data come from patent US12480043B2, “Red-light-mediated nucleic acid anchoring-type fluorescent probe, and preparation method therefor and use thereof” (SOOCHOW UNIVERSITY, priority 2020, dated 2025).
